Source: patent US5726038

Target: FXa/TF/FVIIa

- secreted FXa/TF/FVIIa-dependent chromogenic TFPI- activity: 1 U/ml·OD
Substance: TFPI1-161 -117Gln (non-glycosylated variant of human tissue factor pathway inhibitor, first 161 amino acids, Asn117 replaced by Gln)
